Consider two molecules from PMC3531251, “Yeast importin-β is required for nuclear import of the Mig2 repressor” (BMC Cell Biology, 2012).

The target in this test is T1, Kap60 (importin-α), purified from E. coli (S. cerevisiae, UniProt Q02821 1-542).
T1 construct: also called purified Kap60; GST-Kap60 (before thrombin); source: E. coli BL21(DE3) pLysS, purified on glutathione-Sepharose, released with thrombin
T1 sequence (looked up): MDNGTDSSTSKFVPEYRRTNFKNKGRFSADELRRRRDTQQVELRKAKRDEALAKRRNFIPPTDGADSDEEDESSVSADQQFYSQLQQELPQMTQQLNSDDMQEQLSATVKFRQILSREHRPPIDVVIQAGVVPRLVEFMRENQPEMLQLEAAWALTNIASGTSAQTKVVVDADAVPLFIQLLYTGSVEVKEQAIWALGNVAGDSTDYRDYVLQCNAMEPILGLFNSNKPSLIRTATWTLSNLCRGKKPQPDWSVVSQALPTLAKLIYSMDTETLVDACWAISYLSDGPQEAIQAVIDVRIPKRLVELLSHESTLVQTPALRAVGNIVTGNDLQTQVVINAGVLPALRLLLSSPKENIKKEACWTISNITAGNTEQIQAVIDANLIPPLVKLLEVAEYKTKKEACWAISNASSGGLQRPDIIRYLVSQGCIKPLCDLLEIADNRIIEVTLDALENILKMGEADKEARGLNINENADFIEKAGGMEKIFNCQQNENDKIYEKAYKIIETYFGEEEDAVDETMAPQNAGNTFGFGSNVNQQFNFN
Description: pull-down; GST fusion on glutathione-Sepharose incubated with purified Kap60 and/or Kap95 (thrombin-released), no Gsp1; 1 h at 4°C in PBS; blot with anti-Kap60 or anti-Kap95. To be noted: both partners purified.

B1: GST-Mig2nls1 fusion protein (natural protein)
chain: not shown
notes: Held on glutathione-Sepharose beads in the pull-downs; also called Mig2nls1-GST; MIG2K32AK33AR37A; source: E. coli BL21(DE3) pLysS, purified on glutathione-Sepharose
For B1, the binding result is reported as “binds”.

B2: GST-Mig2 fusion protein (natural protein)
chain: not shown
notes: Mig2 of Saccharomyces cerevisiae, PCR fragment cloned in the SalI site of pGEX-4T-1; also called Mig2-GST; pGEX/MIG2; source: E. coli BL21(DE3) pLysS, purified on glutathione-Sepharose
Turning to B2, the binding result was “binds”.
